Results from US20030077226.

Tests used:
[1] = target: T1, synthetic peptide substrate containing the wild-type APP β-secretase site (SEVKMDAEFR)
T1 chain: SEVKMDAEFR

[2] = target: T2, synthetic peptide substrate containing the Swedish KM→NL mutation (SEVNLDAEFR)
T2 chain: SEVNLDAEFR

B1: Recombinant human Asp2(a) prepared in CHO cells (protein)
chain: ETDEEPEEPGRRGSFVEMVDNLRGKSGQGYYVEMTVGSPPQTLNILVDTGSSNFAVGAAPHPFLHRYYQRQLSSTYRDLRKGVYVPYTQGKWEGELGTDLVSIPHGPNVTVRANIAAITESDKFFINGSNWEGILGLAYAEIARPDDSLEPFFDSLVKQTHVPNLFSLHLCGAGFPLNQSEVLASVGGSMIIGGIDHSLYTGSLWYTPIRREWYYEVIIVRVEINGQDLKMDCKEYNYDKSIVDSGTTNLRLPKKVFEAAVKSIKAASSTEKFPDGFWLGEQLVCWQAGTTPWNIFPVISLYLMGEVTNQSFRITILPQQYLRPVEDVATSQDDCYKFAISQSSTGTVMGAVIMEGFYVVFDRARKRIGFAVSACHVHDEFRTAAVEGPFVTLDMEDCGYNIPQTDESTLMTIAYVMAAICALFMLPLCLMVCQWRCLRCLRQQHDDFADDISLLK
B1 was tested, and the “proteolysis of peptide substrate (percent hydrolysis by RP-HPLC)” value [1] was “Maximal proteolysis was seen with the Swedigh β-secretase peptide, which, after 6 hours, was about 10-fold higher than wild type APP” and the “proteolysis of peptide substrate (percent hydrolysis by RP-HPLC), Swedish peptide against wild type after 6 hours” value [2] was “about 10-fold higher than wild type APP”.

B2: Hu-Asp2(b) expressed in CHO cells (protein)
chain: TQHGIRLPLRSGLGGAPLGLRLPRETDEEPEEPGRRGSFVEMVDNLRGKSGQGYYVEMTVGSPPQTLNILVDTGSSNFAVGAAPHPFLHRYYQRQLSSTYRDLRKGVYVPYTQGKWEGELGTDLVSIPHGPNVTVRANIAAITESDKFFINGSNWEGILGLAYAEIARLCGAGFPLNQSEVLASVGGSMIIGGIDHSLYTGSLWYTPIRREWYYEVIIVRVEINGQDLKMDCKEYNYDKSIVDSGTTNLRLPKKVFEAAVKSIKAASSTEKFPDGFWLGEQLVCWQAGTTPWNIFPVISLYLMGEVTNQSFRITILPQQYLRPVEDVATSQDDCYKFAISQSSTGTVMGAVIMEGFYVVFDRARKRIGFAVSACHVHDEFRTAAVEGPFVTLDMEDCGYNIPQTDESTLMTIAYVMAAICALFMLPLCLMVCQWRCLRCLRQQHDDFADDISLLK
In the case of B2, the “proteolysis of peptide substrate (RP-HPLC)” value [2] is reported as “also cleaves the Swedish β-secretase peptide in proteolysis assays using identical assay conditions”.
